Measured values reported in patent US12629406B2, “Alterations in endothelin receptors following hemorrhage and resuscitation by centhaquin” (MIDWESTERN UNIVERSITY, priority 2018, dated 2026).
*1 amine or outer side, *2 acyl side, *3 side chain or, on linkers, in order; H or OH if unused. Where no end group is shown, it is not given here. Suc = O=C(CCC(=O)[*:2])[*:1]

Assays:
ETA receptors = biological target: T1, ETA receptors (Homo sapiens, UniProt P25101); conditions: cited from earlier work
T1 sequence (P25101 21-427): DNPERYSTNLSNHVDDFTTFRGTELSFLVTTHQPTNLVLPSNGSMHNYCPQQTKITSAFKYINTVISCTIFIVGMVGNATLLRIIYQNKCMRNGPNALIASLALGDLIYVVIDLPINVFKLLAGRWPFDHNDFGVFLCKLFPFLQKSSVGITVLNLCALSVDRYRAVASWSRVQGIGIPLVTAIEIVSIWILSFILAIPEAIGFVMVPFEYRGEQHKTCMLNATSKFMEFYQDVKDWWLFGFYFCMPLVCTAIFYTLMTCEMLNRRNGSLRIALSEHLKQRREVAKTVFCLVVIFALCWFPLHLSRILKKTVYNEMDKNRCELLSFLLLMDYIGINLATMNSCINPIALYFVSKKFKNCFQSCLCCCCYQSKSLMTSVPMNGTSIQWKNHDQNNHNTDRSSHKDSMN

ETB receptors [1] = biological target: T2, ETB receptors (Homo sapiens, UniProt P24530)
T2 sequence (P24530 27-442): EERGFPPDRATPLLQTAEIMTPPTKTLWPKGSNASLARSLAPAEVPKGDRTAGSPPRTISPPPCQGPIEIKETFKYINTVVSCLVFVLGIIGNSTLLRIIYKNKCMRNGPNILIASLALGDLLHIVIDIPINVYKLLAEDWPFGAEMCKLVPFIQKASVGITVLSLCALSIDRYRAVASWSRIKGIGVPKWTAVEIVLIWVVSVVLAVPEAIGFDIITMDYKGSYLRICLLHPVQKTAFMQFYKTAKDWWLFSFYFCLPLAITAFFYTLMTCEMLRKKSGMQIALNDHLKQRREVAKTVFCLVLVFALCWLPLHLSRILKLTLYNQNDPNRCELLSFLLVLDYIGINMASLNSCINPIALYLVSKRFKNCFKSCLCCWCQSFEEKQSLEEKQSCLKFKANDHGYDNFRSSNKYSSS

ETB receptors [2] = biological target: T2, ETB receptors; conditions: cited from earlier work

Substance: analog of ET-1, Suc-Asp-Glu-Glu-Ala-Val-Tyr-Phe-Ala-His-Leu-Asp-Ile-Ile-Trp; potent and specific agonist for the ETB receptors (Suc-DEEAVYFAHLDIIW) [IRL-1620, N-Succinyl-[Glu^9, Ala^11,15] endothelin 1]
- Ki (ETA receptors): 1900 nM
- selectivity for ETB over ETA receptors (ETB receptors [1]): approximately 120,000 times
- Ki (ETB receptors [2]): 0.016 nM
